Measured values: patent US9074002B2, “PTP1B inhibitors” (Cold Spring Harbor Laboratory, priority 2009, dated 2015)

T1: PTP1B-OX (purified recombinant 37 kDa PTP1B, reversibly oxidized with H2O2) (human, UniProt P18031 1-321, catalytic Cys 215 reversibly oxidized by H2O2 (cyclic sulphenamide form))
T1 construct: also called PTP1B-SN
T1 sequence: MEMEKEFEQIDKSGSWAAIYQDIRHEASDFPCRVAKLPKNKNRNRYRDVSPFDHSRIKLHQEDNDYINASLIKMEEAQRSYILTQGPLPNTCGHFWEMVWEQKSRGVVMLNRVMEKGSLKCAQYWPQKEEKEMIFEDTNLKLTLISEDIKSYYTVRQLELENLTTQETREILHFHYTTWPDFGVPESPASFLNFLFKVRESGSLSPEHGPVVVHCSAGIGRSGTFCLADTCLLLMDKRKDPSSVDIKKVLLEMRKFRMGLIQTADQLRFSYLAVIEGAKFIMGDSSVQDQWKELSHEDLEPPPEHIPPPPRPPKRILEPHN

T2: PTP1B under reducing condition (purified recombinant 37 kDa wild type PTP1B, with TCEP) (human, UniProt P18031 1-321)
T2 construct: Same protein as m1 but kept reduced (2 mM TCEP); also called reduced, active PTP1B
T2 sequence: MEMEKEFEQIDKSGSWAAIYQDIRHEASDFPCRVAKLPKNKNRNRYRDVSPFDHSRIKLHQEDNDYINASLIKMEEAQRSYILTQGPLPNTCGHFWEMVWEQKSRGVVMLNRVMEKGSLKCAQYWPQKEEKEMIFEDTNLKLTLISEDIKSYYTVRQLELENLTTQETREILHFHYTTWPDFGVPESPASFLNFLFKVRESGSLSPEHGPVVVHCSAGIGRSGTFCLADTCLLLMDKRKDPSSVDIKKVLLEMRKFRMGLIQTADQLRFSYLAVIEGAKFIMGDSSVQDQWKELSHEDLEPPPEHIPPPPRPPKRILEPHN


What was measured:
[1] = target: T1, PTP1B-OX (purified recombinant 37 kDa …); assay: in vitro Ni-NTA pull-down of purified scFv with purified PTP1B-OX, immunoblot
Description: (§1) In the in vitro binding assay, purified PTP was reversibly oxidized with […] followed by a quick buffer exchange to remove H_2O_2 (FIG. 8). Purified scFv was incubated in molar excess with PTP1B-OX or with PTP under reducing condition (with 2 mM TCEP) in binding buffer (20 mM HEPES, pH 7.4, 300 mM NaCl, 0.05% BSA, 0.05% Tween-20 and 10 mM imidazole) for 2 hours at 4° C. Ni-NTA agarose was added and incubated for one hour at 4° C. Protein complex bound to Ni-NTA agarose beads was pulled down and washed (three times, 5 minutes each, at 4° C.) with binding buffer containing 20 mM imidazole to reduce non-specific binding to the beads. The protein complex was eluted from the Ni-NTA agarose beads with 500 mM imidazole (in binding buffer, pH 7.4) for 15 minutes at 4° C. with gentle shaking. The complex was separated by SDS-PAGE and PTP1B was detected with anti-PTP1B antibody (FG6) and scFv was detected with anti-HA antibody [anti-HA (3F10)-HRP, Roche] by immunoblotting. Eight different scFvs (scFvs 20, 21, 24, 28, 45, 48, 57, and 105), expressed and purified from bacterial cultures were tested by this in vitro binding experiment.

[2] = target: T2, PTP1B under reducing condition …; assay: in vitro Ni-NTA pull-down of purified scFv with purified PTP1B in 2 mM TCEP, immunoblot
Description: as §1

Row | binding result [1] | binding result [2] | Binder
1 | no binding | no binding | scFv21 (scFv) scFv: LTQPSSVSANPGGTVKITCSGSSGSYYGWYQQKSPGSAPVTVIYDNDKRPSDVPSRFSGSKSGPTATLTITGVQAEDEAVYFCGSRDNSYVGIFGAGTTLTVLGQSSRSSAVTLDESGGGLQTPGGALSLVCKASGFTFSSYDMFWVRQAPGKGLEFVAQINSAGSYTNYGSAVKGRATISRDDGQSTVRLQLNNLRAEDTGIYFCAKSASGYYYSGSDAGDIDAWGHGTEVIVSSTSGQAGQHHHHHHGAYPYDVPDYAS
2 | no binding | no binding | scFv20 (scFv) scFv: LTQPSSVSANLGGIVEITCSGSSGSYGWYQQKSPGSAPVTVIYYNDKRPSNIPSRFSGSGSGSTNTLTIAGVRAEDEAVYYCGNEDSSGAAFGAGTTLTVLGQSSRSSAVTLDESGGGLQTPGGGLSLVCKASGFTFSDYDMFWVRQAPSKGLEFVAAITSSGTGTKYGAAVKGRATISKDNGQRTVRLQLNSLGAEDTGTYYCARSDADSTTWSAGEIDAWGHGTEVIVSSTSGQAGQHHHHHHGAYPYDVPDYAS
3 | no binding | no binding | scFv48 (scFv) scFv: LTQPSSVSANPGETVKITCSEGGRSSYYGWYQQKAPGSAPVTVIYDSSSRPSDIPSRFSGSKSGSTGTLTITGVQAEDEAVYYCGSTDSSTSAAIFGAGTTLTVLGQSSRSSTVTLDESGGGLQTPGRALSLVCKASGFTFSSFNMGWVRQAPGKGLEYVASISSSGSYTAYGSAVKGRATISRDNGQSTVRLQLNNLRAEDTATYYCAKAAGSAYYYTAVTPAFAGSIDAWGHGTEVIVSSTSGQAGQHHHHHHGAYPYDVPDYAS
